The DeepSol protein solubility set

test: soluble on expression in E. coli; label from the status in PepcDB or PDB records

Sequence	soluble on expression in E. coli
MSNLSGTDKSVILLMTIGEDRAAEVFKHLSTREVQALSTAMANVRQISNKQLTDVLSEFEQEAEQFAALNINANEYLRSVLVKALGEERASSLLEDILETRDTTSGIETLNFMEPQSAADLIRDEHPQIIATILVHLKRSQAADILALFDERLRHDVMLRIATFGGVQPAALAELTEVLNGLLDGQNLKRSKMGGVRTAAEIINLMKTQQEEAVITAVREFDGELAQKIIDEMFLFENLVDVDDRSIQRLLQEVDSESLLIALKGAEPPLREKFLRNMSQRAADILRDDLANRGPVRLSQVENEQKAILLIVRRLAETGEMVIGSGEDTYV	not soluble
MSNQQALVIFSGGQDSTTCLIQAIQTYGRENVQAITFQYGQRHAVELERARWIAQDLGVKQTVLDLSLMRQITHNALMDDTAAIETAENGVPNTFVDGRNALFLLYAAIYAKGQGIRHIIAGVCETDFSGYPDCRDVFVKSMNVTLNLAMDYDFQIHTPLMYLTKAQTWALADEMGVLDYIREQTHTCYNGIVGGCRECPSCILRERGLAEYLESKKAV	not soluble
MSNRKYFGTDGIRGRVGDAPITPDFVLKLGWAAGKVLARHGSRKIIIGKDTRISGYMLESALEAGLAAAGLSALFTGPMPTPAVAYLTRTFRAEAGIVISASHNPFYDNGIKFFSIDGTKLPDAVEEAIEAEMEKEISCVDSAELGKASRIVDAAGRYIEFCKATFPNELSLSELKIVVDCANGATYHIAPNVLRELGANVIAIGCEPNGVNINAEVGATDVRALQARVLAEKADLGIAFDGDGDRVIMVDHEGNKVDGDQIMYIIAREGLRQGQLRGGAVGTLMSNMGLELALKQLGIPFARAKVGDRYVLEKMQEKGWRIGAENSGHVILLDKTTTGDGIVAGLQVLAAMARNHMSLHDLCSGMKMFPQILVNVRYTAGSGDPLEHESVKAVTAEVEAALGNRGRVLLRKSGTEPLIRVMVEGEDEAQVTEFAHRIADAVKAV	not soluble
MSNVYWPLYEVFVRGKQGLSHRHVGSLHAADERMALENARDAYTRRSEGCSIWVVKASEIVASQPEERGEFFDPAESKVYRHPTFYTIPDGIEHM	soluble
MSNYEKVYIGTYTNGESRGIYSFNIISDSRKTTAPILSCEIENPTYLTFNMNNKTAYSVIKSGNLGGAASFYVDDRNNHLELLNCKFGYENPPERFSGKQPCYVSLDKTNSYLFSVNYHTSRVDVFPIRNDGSIDTVSSFVIHEGFGPNKERQETSHVHCAVTTPLNDFLCVVDLGTDKIVLYRFDDGILCRFNEFKLKPGCGPRHIIFHPNGKIAYIATELSSEVIVLKYSPLDGSFEELQYVSCLPTDYTGKNGSAAIHISRNSNYLYVSNRGHNSISCFHVDNSTGLLTLNSNTSTYGLSPRDFDLSSSGNLLIAANQDSSNLTIFSVDQVSGNLSKITSDIYVPNPVCVKFYHDKLEHHHHHH	not soluble
MSPEDAITRAELLRRREAGEVTLVDVRPHEEYQAGHIPGAINIPIAELADRLAELAGDRDIVAYCRGAYCVMAPDAVRIARDAGREVKRLDDGMLEWRLAGLPVDEGALEHHHHHH	not soluble
MSPENPFLNHEKKEQERQAKRDAVLLAAVKIFNEQGFHSTSLDDVAKSLGISKPTIYHYLGNKEQVLLTCVEIGLQQLIEAAKDVEKQSISGFEKLRRFLFLYGCRNLDDFGRCVILTHDDALSKEGLVKFKALKRVVHEALLNIIRDAQLDQSINAEHDPKILAATLTGAINWSAKWYNPNGVLSKEETIQKMVDILTYGFEKK	not soluble
MSPKSLLITGANRGIGLGLLKQFLKHKDIQIIIATCRDPSKAEELSNLKDSRLHILPLDIDCDESISKLYAEVEKLVGEDGLTVLLNNAGILLPYDVEGEKNRKTLIRQLETNSVSTALITQEFLPLLKKAAAKNGGDGYSINRAAIVNISSTAASVEKIDGTFNGPLVAYRMSKSALNSFAKSCSIDLAKYHILVTSFCPGWVKTGMGGANAMLEIEDATKTLSDNILTLGNAHHGAYLNADLTVIPN	soluble
MSPMNRQRKNKSHVLNEKDERPGGIIKEKSSVRSMAKTQPPSGRTISLTEINKPNALSKKNTEIKAAVEIQNRLTKKMAKNSERRKQMAHGPEMTAQNRTQERIDFVDFLDRHYQVIQAGVHKIQYTKEEFENVIYEAQTIFSSEKALVDIDPPCVVVGDLHGQFNDLINMFILLGRPPETVYVFTGDYVDRGMMSLECIMLLFTYKICYPENIVLLRGNHEIARVNKKYGFYEECVTSIPKCGEEIWALFQRCFNNLPISALIATKILCMHGGLSPALTCLDELRNHPKPIRNPFRGIVNDMLWADPDPSVFEWKASSRGSGFTFGTNVIDDVCKRLGVELIIRAHQMCFDGYWVLSGRKLITIFSAPMYCNFYKNAGCVLKVDETLGIQMIAFVPASENIEKIIEEKNRVWDISIDCID	not soluble
MSPSASDKPLPPHHAEHMAEAVAEACRGVECGDGGPFGAVVVDSNGKVVAKGHNMVLVTKDPTMHAEMTAIKNACKALGTFDLSGHILYTSCYPCPMCMGGCLWARFDAIYYGATAQQAAEIGFDDKAFHDFLKDPKSDEIRKLEHLAADNYLLPFQMWSNKPDKTEY	soluble
MSQENIIYFSDYICITKGADGFYIESYKKGMSVDEFNKIIGRHPEIKITSFMAIKNAILFAPKPPVKFGEVKDRISVELSSDELKAYIRLCVEEWEFSGDARVKLMEEISKSLEKAGVVFGIKEDVLLDGLCNNKQILIAEGIPPEHGEDAVIRMYEIKKAKPAIKEDGRVDHYELNLINKVKTGDWLGERIDPTPGTAGKSVKGNPIPARPGRNYPLHYDKNSVREERKGGVTYLYALKSGAVHYEGDRISVSNHLEIDGDVDFKTGNINFDGFVTIKGTVADGFSVVAVKDVEILGTIGIGSVKEVVSKEGSIYIKGGIAGKNKAVIKAKKDVYTKYISDATVACEGSLHVGLYCINSNITAREIIIDSPKGQISGGNIQCETKVLSPVLGSPSEKRTVISVKGFNRNTLKERLEEVMKNIETLKNELVKVKAEVNAYFENEQNGKVGSLKAEDIRQRFNRIKNELTELEEEKKAISDTLRTRGEGEISILKKAYPGVVIGIKNIIKEIDRPIVNTTFYIQDGYIKEV	soluble
MSQIKNYMEEVVFSLMKDVLSDINVCSCEKCRMDIAAIALNNLPPKYIVTDKGELYSKVDSLKQQFEVDVISALAKAAVIVKRNPRHE	not soluble
MSQPAKVLLLYAHPESQDSVANRVLLKPAIQHNNVTVHDLYARYPDFFIDTPYEQALLREHDVIVFQHPLYTYSCPALLKEWLDRVLSRGFASGPGGNQLVGKYWRSVITTGEPESAYRYDALNRYPMSDVLRPFELTAAMCRMHWMPPIIVYWARRQSPQTLASHAKAYGEWLANPVSAGGY	not soluble
MSQPCPCGSADEYSLCCGRIVSGERVAPDPSHLMRSRYCAFVMKDADYLIKSWHPTCNAAAFRDDIIAGFANTRWLGLTIFEHTWSEAENTGYVSFIARFSEQGKNGAIIERSRFIKENGQWYYIDGTRPQLGRNDPCPCGSGKKFKKCCGQ	not soluble
MSQRIIQPSASDQQFPGKSDGYEYTVGPKQAITSEASTTYIPSRIYSESLLFKRQEASLSAMAFLFQEMISQLHRTCKTAGDFETKLSDYGHNIGIRLLELLNFRASVSPSSLPRASAFLSQNESSSKLSNASNSPGMLANSSTATSASANERLQEKQTESLSNYITKMRRRDLKILDILQFIHGTLWSYLFNHVSDDLVKSSERDNEYMIVDNFPTLTQFIPGENVSCEYFVCGIIKGFLFNAGFPCGVTAHRMPQGGHSQRTVYLIQFDRQVLDREGLRFG	soluble
MSQTNESFAALFEESIARSNMKAGEVISAEVVRIDHNFVVVNAGLKSEAFVPVEEFLNDQGELEVQVGDYVSVAIDALENGYGDTILSRDKAKRLASWLNLEKALESGEIISGTVTGKVKGGLTVMVNGIRAFLPGSLVDVRPIKDTTPYEGKTLEFKVIKLDRKRNNVVLSRRAVVEATLGEERQKLMETLKEGAIVNGIVKNITDYGAFVDLGGIDGLLHITDLAWRRVRHPSEVLSVGQEITAKILKFDQEKNRVSLGVKQLGEDPWVGISRRYPQGTRLFGKVTNLTDYGAFVEIEAGIEGLVHVSEMDWTNKNVAPSKVVQLGDEVEVMVLDIDEDKRRISLGMKQCKANPWDDFARNHKKGDKLAGQIKSITDFGVFIGLPGGIDGLVHLSDLSWQETGEEAVRKYKKGDEVEAVVLAIDVEKERISLGIKQLSGDPFNNFISANDKGSIVSVTIKTVDPKGAVVQLADDVEGYLRASEISSDRVEDARNVLKEGETMTAMIVNIDRKSRNINVSIKAKDSADQQEAMQKFAQDTGTAGTTNLGALLKAKLNETNQLEHHHHHH	soluble
MSQVFKDFDLSSVWKTNSWADENYKEAPFTPEILAAVESELGYKLPQSFIELMAVQNGGIFVKNCFPTTQRNSWAENHVQICEVSGIGFEKEGSLCGAMGQKLWLEEWEYPPIGVYFANDPSGGHAMFALDYRACGKDGEPKVVFVEQESDFEIVELAPDFETFIRSLRHEDEFIDEEI	not soluble
MSQVQEQHISESQLQYGNGSLMSTVPADLSQSVVDGNGNGSSEDIEATNGSGDGGGLQEQAEAQGEMEDEAYDEAALGSFVPIEKLQVNGITMADVKKLRESGLHTAEAVAYAPRKDLLEIKGISEAKADKLLNEAARLVPMGFVTAADFHMRRSELICLTTGSKNLDTLLGGGVETGSITELFGEFRTGKSQLCHTLAVTCQIPLDIGGGEGKCLYIDTEGTFRPVRLVSIAQRFGLDPDDALNNVAYARAYNADHQLRLLDAAAQMMSESRFSLIVVDSVMALYRTDFSGRGELSARQMHLAKFMRALQRLADQFGVAVVVTNQVVAQVDGGMAFNPDPKKPIGGNIMAYSSTTRLGFKKGKGCQRLCKVVDSPCLPEAECVFAIYEDGVGDPREEDE	soluble
MSRDNQEIKAPEESSAEEQKEMDDKVTSPEKAEEIKLKSRYPNIGPKPGGSDFLRKRLQKGQKYFDSGDYNMAKAKMKNKQLPTAAPDKTEVTGDHIPTPQDLPQRKPSLVASKLAG	soluble
MSRFVQDLSKAMSQDGASQFQEVILQELELSVKKELEKILTTAASHEFEHTKKDLDGFRKLFHRFLQEKGPSVDWGKIQRPPEDSIQPYEKIKARGLPDNISSVLNKLVVVKLNGGLGTSMGCKGPKSLIGVRNENTFLDLTVQQIEHLNKTYNTDVPLVLMNSFNTDEDTKKILQKYNHCRVKIYTFNQSRYPRINKESLLPIAKDVSYSGENTEAWYPPGHGDIYASFYNSGLLDTFIEEGKEYIFVSNIDNLGATVDLYILNHLMNPPNGKRCEFVMEVTNKTRADVKGGTLTQYEGKLRLVEIAQVPKAHVDEFKSVSKFKIFNTNNLWISLGAVKRLQEQNAIDMEIIVNPKTLDGGLNVIQLETAVGAAIKSFENSLGINVPRSRFLPVKTTSDLLLVMSNLYSLNAGSLTMSEKREFPTVPLVKLGSSFTKVQDYLRRFESIPDMLELDHLTVSGDVTFGKNVSLKGTVIIIANHGDRIDIPPGAVLENKIVSGNLRILDH	soluble
MSRGFALLGWLNPAQRQAVTAPCGHLCINAAAGTGKTTTVAARILWLQLVQDVPPEAILAVTFSRAARAHLLDRVEAFTRVLGAGGAVPTFTLHGLAYRILRIAIGAGETWLRPGFGVISVGRDRINPLLQEHAADLLGDLSDPWDLPTRVEQYSRALDAVRQGCADIEEGLPLEPDDLPDGVLYVPARIETPNLRKVWRRYNRMLRARNYLDYPGMVTEAILALYREGKTLQRARANLEYIIVDEYQDTSRAQEELIQLLVGERTSVTVVGDSDQAIYTFNGADIGNILHFAERILETGSALPVLEPVHLVENYRSSACILDAANRVLDRIHGPGRKQLVPYPGTVDEPVESYRRRNLEVVRVHAGSLDQAAFWAASEIARLVTEEGIEPSDIAVLVRKDTEHAPQGRAVRLALERLGIRAEEQERDPIRSSHVYEVVRDLCGDPDYYGEDIGDMIERIAAGEFRDALGDVTPDEATALLREAQAAGAEFAGEVVDFVFEQGAPDATPASLEGVQVRTIHSAKGLEFRVVFLMYLSDREFPHGAHPDVAEERRLYYVGLTRAQERLYVLGQPGVRNEDFFGAIDGSGVVTVHVEPWRDRSPSSEEAVDDETLRLIQEARRRQHDMFLRRP	soluble
